In the supplement of paper PMC6755084:

B1: minF1; a variant is named by its letters at N, in order (parent)
chain: GAGACCGCAACTGAAAAGTTGTTNNNNAANNNNGGNTNNATTTCTGCACGTAGAAGCAAAAGGC
B2: F1*; the commonest letter at each place (parent)
chain: GAGACCGCAACTGAAAAGTTGTTATCACTTGTCGTAAGACACTTTGGATGGGTTGAAGTTCTGCACGTAGAAGCAAAAGGC

Variants of: B1
Assay: fraction ligated after 30 min (ligated reads / total reads); higher = more ligase activity
Settings: with F1*subA RNA substrate (template-directed ligation), 42 °C
Experimental: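 Chip-synthesised pool of minF1 ligase ribozyme variants (single and double substitutions, single to quadruple deletions, bulge and P2 designed variants) was transcribed with T7 and reacted as a pool with excess substrate F1*subA for 30 min at 42 C in 50 mM EPPS pH 8.5, 25 mM MgCl2. Ligated and unligated RNAs were separated by PAGE, barcoded by RT and deep sequenced; fraction ligated = ligated reads / total reads, relative activity = FL / FL of wild-type minF1 (0.76); sequencing FL correlated with PAGE (R2 = 0.98). Sequences are the DNA template of the ribozyme.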

Compared with ATCAAATAGTT A28G G34T T37G A40G, ATAATATGTGA is higher in fraction ligated: 0.0013 for the first, 0.00335 for the second.

First: TCGATGGAGTA T23A
Second: ACAGATGGGGT G34A G35T T37G A40T
The fraction ligated of the first is higher: 0.00851 for the first, 0.00109 for the second.

Compared with ATCAATATTGA, ATCAAATGGTG A28G G34A is higher in fraction ligated: 0.00211 for the first, 0.00551 for the second.

Going from ATCAAATGGTG A28G G34T to ATCATGGAGTT G34T T37G, the fraction ligated falls from 0.0032 to 0.00293.

First: CAGATGGTTGA T23A
Second: ACAGGGATGTA A29T
The fraction ligated of the first is lower: 0.00385 for the first, 0.00654 for the second.

First: ATAATGGAGTA G34T
Second: TCAGATGGTGA
The fraction ligated of the first is lower: 0.00307 for the first, 0.00356 for the second.

Going from AAGAGGATTGA A29T to ATGAGGATTGA A29T, the fraction ligated falls from 0.007 to 0.00582.

First: ACGATGAGTGA
Second: TAAAGATGTGA A29G
The fraction ligated of the first is higher: 0.0021 for the first, 0.00158 for the second.

Going from AGAAGATGTGA T23A A29T to ATCAAATAGTA A28G, the fraction ligated rises from 0.00161 to 0.00232.

Compared with TCGATGTGTGA, TAGAGGTGTGA is higher in fraction ligated: 0.0025 for the first, 0.00375 for the second.

Going from ATCGAGGTGTA to ATCAAATAGTT A28G G34T T37G, the fraction ligated falls from 0.00324 to 0.00135.

First: TCAGTGGAGTT G34T T37G A40G
Second: ATCGTGATGTG
The fraction ligated of the first is lower: 0.00151 for the first, 0.0261 for the second.

First: AAAAGGTGTGA A29T
Second: ATAATGAGTGA
The fraction ligated of the first is lower: 0.00306 for the first, 0.00461 for the second.

Going from ATGAGGATGTA to ATAAGGATGTA A29T, the fraction ligated rises from 0.00328 to 0.00345.

First: TCAGGGTGTGA
Second: TCAGATTGTGA T23A
The fraction ligated of the first is higher: 0.00203 for the first, 0.00184 for the second.

Compared with TCAGATGGGTA G34T, ATAATGATGTG is higher in fraction ligated: 0.00105 for the first, 0.00571 for the second.

First: TCAATGATGTA T23A
Second: ATCAATGGGTT G34A G35T T37G
The fraction ligated of the first is higher: 0.00393 for the first, 0.00168 for the second.

Going from ATAGGATGTGA A29G to ATAGGATGTGA A29T, the fraction ligated falls from 0.00633 to 0.00303.

Going from CAGATGGAGTG T23A G34T to AAGATGGATGA, the fraction ligated falls from 0.0111 to 0.00526.

First: ATGAGGATGTG A29T
Second: TCGATGGTGTA
The fraction ligated of the first is higher: 0.00971 for the first, 0.00285 for the second.

First: CAGAGGATGTG T23A A29T
Second: ATCATGATTGA
The fraction ligated of the first is higher: 0.0132 for the first, 0.00257 for the second.

First: TCAGATGGGTA T23A
Second: TAGAGGATGTG T23A
The fraction ligated of the first is lower: 0.00335 for the first, 0.00675 for the second.

Going from CAGATGGAGTT T23A G34T T37G A40G to ATAATGATTGA, the fraction ligated falls from 0.00303 to 0.00291.

First: AAAAGGATGTG A29T
Second: TGAAGGATGTG A29T
The fraction ligated of the first is lower: 0.00334 for the first, 0.00863 for the second.

Going from TCAGATGGGTT G34A T37G A40G to ACGAGGATTGA A29T, the fraction ligated rises from 0.00106 to 0.00766.

Compared with ACAGGATGTGA A29T, ATCATGGTTGA is higher in fraction ligated: 0.00171 for the first, 0.0043 for the second.

First: ATCAGGATTGA A28G
Second: ATCGAGGAGTG
The fraction ligated of the first is lower: 0.0019 for the first, 0.0042 for the second.

First: ATCATGGTGTA A28G
Second: TCGAGGAGTGA T23A A29T
The fraction ligated of the first is higher: 0.0034 for the first, 0.00108 for the second.

Compared with ACAGAGGTGTG, TCAGAGAGTGA is lower in fraction ligated: 0.00409 for the first, 0.00182 for the second.

First: ACAGATATGTA
Second: TAGATGGAGTG T23A G34T
The fraction ligated of the first is lower: 0.00255 for the first, 0.00936 for the second.

First: TAGAGGATGTA T23A A29T
Second: TCAGGATGTGA T23A A29T
The fraction ligated of the first is lower: 0.00136 for the first, 0.00222 for the second.

First: TCAGGATGTGA T23A A29G
Second: TCGATGATTGA
The fraction ligated of the first is lower: 0.00232 for the first, 0.00257 for the second.

Compared with TCAATGGATGA, CAAAGGATGTA T23A A29T is lower in fraction ligated: 0.00193 for the first, 0.000678 for the second.

First: ATCAAGGAGTA A28G
Second: TCAATGGAGTA T23A G34T
The fraction ligated of the first is lower: 0.00255 for the first, 0.0178 for the second.

Compared with GAAAGATGTGA T23C A28T A29G, ATCGTATGTGA is lower in fraction ligated: 0.00212 for the first, 0.00154 for the second.

Compared with ATCAAGGAGTG A28G, TCGAGGATTGA A29T is higher in fraction ligated: 0.00589 for the first, 0.00979 for the second.

Compared with ATAGATATGTA, ATCATGGAGTG G34T is higher in fraction ligated: 0.00365 for the first, 0.0119 for the second.

First: ATCATGGAGTT A28G G34T T37G A40G
Second: ACAGATGATGA
The fraction ligated of the first is higher: 0.00132 for the first, 0.00115 for the second.

Going from CAGATGGAGTG to CAGATGGAGTA, the fraction ligated falls from 0.00678 to 0.00249.

Going from ATCAAATGGGT A28G G35A T37G A40T to AAGATGGGTGA, the fraction ligated rises from 0.00114 to 0.00372.

First: ATGATGAGTGA
Second: TCAAGATGTGA A29T
The fraction ligated of the first is lower: 0.00204 for the first, 0.00235 for the second.

Going from ACAAGATGTGA A29G to TCAATGGTGTA, the fraction ligated falls from 0.0031 to 0.00227.

Compared with ATAGAGGTTGA, CAGAGGAGTGA T23A is lower in fraction ligated: 0.00247 for the first, 0.00148 for the second.

First: TAGAGGTGTGA T23A A29T
Second: ATAGAGAGTGA
The fraction ligated of the first is higher: 0.00331 for the first, 0.000691 for the second.

Going from ATCATGGTTGA A28G to ATCAGGAGTGA, the fraction ligated rises from 0.00132 to 0.00543.

First: TCAGAGGTGTA T23A
Second: TAGATGGGTGA
The fraction ligated of the first is lower: 0.00248 for the first, 0.00433 for the second.

First: ATGATGGGTGA
Second: ATCAATGTTGA
The fraction ligated of the first is lower: 0 for the first, 0.00356 for the second.

Going from TCAATGGAGTG T23A to AAGAGATGTGA A29G, the fraction ligated rises from 0.0035 to 0.00367.

Going from AAGAGATGTGA A29T to TCAGAGATGTG, the fraction ligated rises from 0.00363 to 0.0039.

First: ATCATATGTGA
Second: ATCAGGATGTA A28G A29T
The fraction ligated of the first is higher: 0.00281 for the first, 0.00157 for the second.

Compared with TCAATGGAGTA G34T, ATAGTGGAGTG G34T is lower in fraction ligated: 0.0216 for the first, 0.0109 for the second.

Going from TCAATGATGTA to ATAGTGGTGTA, the fraction ligated falls from 0.00254 to 0.0012.

Going from ATCAATGGGTT G34T T37G to ATCAAAGTTGA A28G, the fraction ligated rises from 0.00279 to 0.0038.

First: CAGAGATGTGA T23A A28T A29G
Second: ATCAATAGTGA
The fraction ligated of the first is lower: 0.00252 for the first, 0.00321 for the second.

Going from TCAATGAGTGA T23A to CAGAGGATGTA T23A A29T, the fraction ligated rises from 0.00315 to 0.00576.

Compared with TAGATGATGTG T23A, TCAATGGAGTA is lower in fraction ligated: 0.00386 for the first, 0.00279 for the second.

Compared with ACAGGATGTGA, ATCGATATGTA is lower in fraction ligated: 0.00342 for the first, 0.0031 for the second.

First: ATCGATGAGTG G34T
Second: ATCAAATTGTA A28G
The fraction ligated of the first is higher: 0.0033 for the first, 0.00076 for the second.

First: ACGAGGATGTG A29T
Second: TCAGATGAGTA G34T
The fraction ligated of the first is higher: 0.0152 for the first, 0.00143 for the second.

For ATCAATATGTA, the fraction ligated was 0.00288.

Variants of: B2
Assay: fraction ligated after 30 min (ligated reads / total reads); higher = more ligase activity
Settings: with F1*sub RNA substrate (template-directed ligation), 42 °C
In short: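 Oligo-pool templates underwent PCR amplification, T7 transcription and gel purification to yield ribozyme variants. Gel-separated ligated and unligated bands were converted to complementary DNA with barcoded primers and sequenced on a MiSeq, keeping core bases of quality ≥20. The ratio of ligated reads to total reads gave the fraction ligated for every variant.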

First: G55T
Second: A56G
The fraction ligated of the first is higher: 0.83 for the first, 0.781 for the second.

First: A56C
Second: A56T
The fraction ligated of the first is lower: 0.767 for the first, 0.803 for the second.

First: G55C A57G
Second: G55C A57C
The fraction ligated of the first is higher: 0.773 for the first, 0.412 for the second.

First: G55C A57T
Second: G55T A56C
The fraction ligated of the first is higher: 0.632 for the first, 0.014 for the second.

First: G55T A56G
Second: G55T A56T
The fraction ligated of the first is higher: 0.806 for the first, 0.378 for the second.

First: A56C A57C
Second: A56C A57T
The fraction ligated of the first is lower: 0.447 for the first, 0.77 for the second.

First: A56C A57G
Second: G55T A56C A57C
The fraction ligated of the first is higher: 0.0212 for the first, 0.00348 for the second.

Compared with G55T A56C A57T, G55T A56C A57G is lower in fraction ligated: 0.0111 for the first, 0.00397 for the second.

First: G55C A56G A57T
Second: G55C A56G A57G
The fraction ligated of the first is lower: 0.0232 for the first, 0.0448 for the second.

Compared with G55C A56G A57C, A56T A57T is higher in fraction ligated: 0.104 for the first, 0.454 for the second.

Going from A56T A57G to A56T A57C, the fraction ligated falls from 0.217 to 0.0772.

First: A56G A57T
Second: A56G A57G
The fraction ligated of the first is lower: 0.383 for the first, 0.807 for the second.

Going from A56G A57C to G55T A56T A57G, the fraction ligated falls from 0.748 to 0.0103.

First: G55T A56T A57T
Second: G55T A56T A57C
The fraction ligated of the first is higher: 0.0137 for the first, 0.00568 for the second.

Going from G55C A56T A57C to G55C A56T A57G, the fraction ligated rises from 0.00477 to 0.0294.

Going from G55C A56T A57T to G55C A56C A57G, the fraction ligated rises from 0.0179 to 0.0246.

Going from G55C A56C A57T to unchanged, the fraction ligated rises from 0.0335 to 0.826.

Compared with G58T, G58A is higher in fraction ligated: 0.834 for the first, 0.851 for the second.

Going from G58C to G55C A56G, the fraction ligated rises from 0.767 to 0.843.

Compared with G55C A56T, G55T A57C is lower in fraction ligated: 0.737 for the first, 0.717 for the second.

Compared with G55T A57G, G55T A57T is higher in fraction ligated: 0.791 for the first, 0.794 for the second.

First: A57C
Second: A57T
The fraction ligated of the first is lower: 0.814 for the first, 0.844 for the second.

Going from A57G to G55T A56G A57G, the fraction ligated falls from 0.822 to 0.0371.

Compared with G55T A56G A57C, G55T A56G A57T is lower in fraction ligated: 0.0609 for the first, 0.0243 for the second.
